These results are taken from US20110098449A1.

This assay has as its target Human recombinant hepatocyte growth factor activator (HGFA) (human) (UniProt Q04756). Kind of assay: cell-based or functional assay.
UniProt Q04756, sequence (Q04756 373-655 limits assumed): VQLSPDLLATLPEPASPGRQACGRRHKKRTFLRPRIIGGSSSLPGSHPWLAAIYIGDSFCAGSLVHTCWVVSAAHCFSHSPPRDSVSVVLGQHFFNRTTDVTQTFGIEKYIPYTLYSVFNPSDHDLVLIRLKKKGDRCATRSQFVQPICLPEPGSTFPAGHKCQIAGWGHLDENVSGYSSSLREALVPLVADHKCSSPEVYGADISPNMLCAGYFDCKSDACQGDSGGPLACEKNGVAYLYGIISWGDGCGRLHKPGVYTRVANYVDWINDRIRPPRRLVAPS

“Soluble HAI-1B (hepatocyte growth factor activator inhibitor-1B) (from UniProt O43278 36-465)”: the inhibition of HGFA-mediated 125I-proHGF conversion (SDS-PAGE) stood at 1 µM.
